Measurements published in publication PMC9243169.

Key:
[1] = target: T1, N-myristoylated 4-mer lipopeptide Myr-GAAL; assay: size-exclusion chromatography of in vitro assembled heavy chain/β2m/ligand complex; settings: chain shown with the change; parent: est. 160; read off a plot
T1 chain: GAAL

[2] = target: T2, LANTVATL peptide; assay: as above; settings: chain shown with the change; parent: est. 160; read off a plot
T2 chain: LANTVATL

B1: HLA-C∗14:02 heavy chain, ectodomain (soluble form) S9Y (protein)
chain: AGSHSMRYFYTSVSRPGRGEPRFIAVGYVDDTQFVRFDSDAASPRGEPRAPWVEQEGPEYWDRETQKYKRQAQTDRVSLRNLRGYYNQSEAGSHTLQWMFGCDLGPDGRLLRGYDQSAYDGKDYIALNEDLRSWTAADTAAQITQRKWEAAREAEQRRAYLEGTCVEWLRRYLENGKETLQRAEHPKTHVTHHPVSDHEATLRCWALGFYPAEITLTWQWDGEDQTQDTELVETRPAGDGTFQKWAAVVVPSGEEQRYTCHVQHEGLPEPLTLRWEP
response [1]: 30 mAU
response [2]: 180 mAU
